Reference: publication PMC8771494

Target: APC15R (the 15-aa repeat region of Adenomatous polyposis coli, repeats A-D with the linker region) (human)
Experiment: cross-linking

Chain of APC15R (the 15-aa repeat region of Adenomatous polyposis coli, repeats A-D with the linker region) (human) (P25054 2-2843): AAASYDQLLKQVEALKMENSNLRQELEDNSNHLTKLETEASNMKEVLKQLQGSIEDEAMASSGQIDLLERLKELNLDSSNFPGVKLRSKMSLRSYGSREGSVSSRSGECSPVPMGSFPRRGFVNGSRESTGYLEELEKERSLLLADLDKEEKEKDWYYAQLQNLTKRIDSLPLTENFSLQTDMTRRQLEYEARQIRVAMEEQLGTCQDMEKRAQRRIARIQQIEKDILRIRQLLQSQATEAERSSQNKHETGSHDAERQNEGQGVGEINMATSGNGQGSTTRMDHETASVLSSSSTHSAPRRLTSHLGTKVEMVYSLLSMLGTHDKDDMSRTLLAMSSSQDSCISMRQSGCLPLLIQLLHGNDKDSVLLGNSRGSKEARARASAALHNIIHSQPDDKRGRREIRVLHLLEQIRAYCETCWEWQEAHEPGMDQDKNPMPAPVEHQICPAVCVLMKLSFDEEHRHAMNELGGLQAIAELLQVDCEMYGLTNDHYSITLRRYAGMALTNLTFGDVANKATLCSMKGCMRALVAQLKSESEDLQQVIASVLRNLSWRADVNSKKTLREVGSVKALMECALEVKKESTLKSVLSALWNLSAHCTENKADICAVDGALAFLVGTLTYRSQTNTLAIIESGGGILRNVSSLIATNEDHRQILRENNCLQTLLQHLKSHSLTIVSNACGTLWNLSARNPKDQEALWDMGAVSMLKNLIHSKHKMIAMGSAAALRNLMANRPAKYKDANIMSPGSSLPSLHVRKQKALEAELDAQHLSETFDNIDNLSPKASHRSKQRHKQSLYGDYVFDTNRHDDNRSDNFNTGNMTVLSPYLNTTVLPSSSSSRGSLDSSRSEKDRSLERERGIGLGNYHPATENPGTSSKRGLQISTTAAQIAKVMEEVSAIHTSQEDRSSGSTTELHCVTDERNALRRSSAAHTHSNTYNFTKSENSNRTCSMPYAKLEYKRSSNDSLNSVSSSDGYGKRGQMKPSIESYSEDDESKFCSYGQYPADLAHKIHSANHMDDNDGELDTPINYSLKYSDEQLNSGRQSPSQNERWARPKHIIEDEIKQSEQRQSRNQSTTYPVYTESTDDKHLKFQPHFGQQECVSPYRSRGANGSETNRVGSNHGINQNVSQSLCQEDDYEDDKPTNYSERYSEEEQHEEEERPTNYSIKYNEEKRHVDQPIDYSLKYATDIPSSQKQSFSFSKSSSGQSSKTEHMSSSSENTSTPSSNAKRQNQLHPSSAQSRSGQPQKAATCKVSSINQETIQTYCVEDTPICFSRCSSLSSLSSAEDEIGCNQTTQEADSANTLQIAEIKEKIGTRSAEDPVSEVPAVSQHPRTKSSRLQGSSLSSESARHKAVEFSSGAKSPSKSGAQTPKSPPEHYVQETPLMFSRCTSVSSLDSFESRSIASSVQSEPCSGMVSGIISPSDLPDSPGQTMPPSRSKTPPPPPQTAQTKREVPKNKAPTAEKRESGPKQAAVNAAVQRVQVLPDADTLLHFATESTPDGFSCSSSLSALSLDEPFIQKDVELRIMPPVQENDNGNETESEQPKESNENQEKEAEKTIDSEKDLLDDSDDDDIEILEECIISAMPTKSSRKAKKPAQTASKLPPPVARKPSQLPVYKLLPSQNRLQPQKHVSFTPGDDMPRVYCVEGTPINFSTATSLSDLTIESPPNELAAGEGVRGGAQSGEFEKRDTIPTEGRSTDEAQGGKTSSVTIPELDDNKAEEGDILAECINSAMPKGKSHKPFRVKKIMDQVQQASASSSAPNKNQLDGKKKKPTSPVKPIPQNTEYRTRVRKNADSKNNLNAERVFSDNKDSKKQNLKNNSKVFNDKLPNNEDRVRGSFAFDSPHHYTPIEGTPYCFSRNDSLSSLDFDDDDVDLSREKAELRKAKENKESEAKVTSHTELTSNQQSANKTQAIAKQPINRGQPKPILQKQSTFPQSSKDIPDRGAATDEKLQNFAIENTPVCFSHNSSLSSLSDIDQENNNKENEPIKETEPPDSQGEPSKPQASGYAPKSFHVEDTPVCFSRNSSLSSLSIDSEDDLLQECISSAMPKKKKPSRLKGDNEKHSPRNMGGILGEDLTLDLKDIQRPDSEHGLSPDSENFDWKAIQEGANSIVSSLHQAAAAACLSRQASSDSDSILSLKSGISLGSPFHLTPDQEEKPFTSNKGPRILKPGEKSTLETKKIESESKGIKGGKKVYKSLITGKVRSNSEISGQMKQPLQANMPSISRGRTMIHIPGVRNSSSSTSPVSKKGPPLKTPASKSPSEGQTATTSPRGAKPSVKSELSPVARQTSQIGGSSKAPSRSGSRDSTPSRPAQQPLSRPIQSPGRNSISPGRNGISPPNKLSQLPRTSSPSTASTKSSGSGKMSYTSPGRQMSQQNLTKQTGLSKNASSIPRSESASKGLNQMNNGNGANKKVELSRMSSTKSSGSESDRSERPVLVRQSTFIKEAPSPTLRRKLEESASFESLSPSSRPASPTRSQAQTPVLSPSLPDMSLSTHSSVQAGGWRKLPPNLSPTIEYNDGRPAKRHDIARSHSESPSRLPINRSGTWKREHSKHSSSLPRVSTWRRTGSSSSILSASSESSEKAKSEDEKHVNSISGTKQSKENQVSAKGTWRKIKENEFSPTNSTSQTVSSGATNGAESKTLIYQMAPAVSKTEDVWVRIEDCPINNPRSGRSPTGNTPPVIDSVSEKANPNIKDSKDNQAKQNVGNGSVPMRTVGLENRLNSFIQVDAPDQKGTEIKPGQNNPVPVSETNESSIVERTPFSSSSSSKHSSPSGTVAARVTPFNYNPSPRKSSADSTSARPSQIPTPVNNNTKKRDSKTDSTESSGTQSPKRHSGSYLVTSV

In the case of “β-catenin (aa. 150–665), the central region of β-catenin (from UniProt P35222 150-665) (domain or fragment)”, the stoichiometry N (β-catenin per APC15R) is reported as 1.
